How the values were obtained:
[1] = target: T1, 4H3905-AA; assay: two-hybrid library CCmax;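 note: natural log of median RNA to DNA barcode read ratio; higher means stronger binding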
T1 chain: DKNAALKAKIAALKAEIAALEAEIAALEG

[2] = target: T2, 4H4038-AA; assay: two-hybrid library CCmax; conditions: mean of both orientations;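 note: natural log of median RNA to DNA barcode read ratio; higher means stronger binding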
T2 chain: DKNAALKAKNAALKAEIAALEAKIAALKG

[3] = target: T3, 4H43-AA; assay: two-hybrid library CCmax; conditions: mean of both orientations;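 note: natural log of median RNA to DNA barcode read ratio; higher means stronger binding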
T3 chain: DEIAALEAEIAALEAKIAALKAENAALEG

[4] = target: T4, 4H451-AA; assay: two-hybrid library CCmax; conditions: mean of both orientations;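 note: natural log of median RNA to DNA barcode read ratio; higher means stronger binding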
T4 chain: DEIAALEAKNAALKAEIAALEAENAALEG

[5] = target: T5, 4H510-AA; assay: two-hybrid library CCmax; conditions: mean of both orientations;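 note: natural log of median RNA to DNA barcode read ratio; higher means stronger binding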
T5 chain: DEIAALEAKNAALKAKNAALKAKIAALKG

[6] = target: T6, 4H_APH; assay: two-hybrid library CCmax; conditions: mean of both orientations;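 note: natural log of median RNA to DNA barcode read ratio; higher means stronger binding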
T6 chain: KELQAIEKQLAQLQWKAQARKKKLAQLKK

[7] = target: T7, 4H_BCR; assay: two-hybrid library CCmax; conditions: mean of both orientations
T7 chain: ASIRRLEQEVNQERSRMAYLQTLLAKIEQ

[8] = target: 4H_GCN4; assay: two-hybrid library CCmax
Chain of 4H_GCN4 (chain, as listed by the source): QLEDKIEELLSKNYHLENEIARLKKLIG

[9] = target: GCN2_T; assay: two-hybrid library CCmax
[10] = target: T8, O11-AA; assay: two-hybrid library CCmax; conditions: mean of both orientations
T8 chain: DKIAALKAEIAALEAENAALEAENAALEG

[11] = target: T9, O13-AA; assay: two-hybrid library CCmax; conditions: mean of both orientations
T9 chain: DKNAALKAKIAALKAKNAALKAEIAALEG

[12] = target: T10, O14-AA; assay: two-hybrid library CCmax; conditions: mean of both orientations
T10 chain: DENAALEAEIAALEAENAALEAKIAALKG

[13] = target: T11, O8-bA; assay: two-hybrid library CCNG1
T11 chain: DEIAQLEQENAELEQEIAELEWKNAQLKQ

[14] = target: T12, O9-bA; assay: two-hybrid library CCNG1
T12 chain: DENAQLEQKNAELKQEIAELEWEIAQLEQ

[15] = target: T13, 4H3605-AA; assay: two-hybrid library CCmax
T13 chain: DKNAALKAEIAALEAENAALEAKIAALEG

[16] = target: T14, 4H3625-AA; assay: two-hybrid library CCmax; conditions: mean of both orientations
T14 chain: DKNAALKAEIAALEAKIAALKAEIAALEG

[17] = target: T15, 4H3664-AA; assay: two-hybrid library CCmax; conditions: mean of both orientations
T15 chain: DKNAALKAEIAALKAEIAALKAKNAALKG

[18] = target: T16, 4H369-AA; assay: two-hybrid library CCmax; conditions: mean of both orientations
T16 chain: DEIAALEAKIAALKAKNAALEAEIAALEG

[19] = target: T17, 4H3922-AA; assay: two-hybrid library CCmax; conditions: mean of both orientations
T17 chain: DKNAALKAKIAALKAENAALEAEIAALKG

[20] = target: T18, 4H4033-AA; assay: two-hybrid library CCmax; conditions: mean of both orientations
T18 chain: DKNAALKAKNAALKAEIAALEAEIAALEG

[21] = target: T19, 4H481-AA; assay: two-hybrid library CCmax; conditions: mean of both orientations
T19 chain: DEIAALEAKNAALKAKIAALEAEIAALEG

[22] = target: T20, 4H55-AA; assay: two-hybrid library CCmax
T20 chain: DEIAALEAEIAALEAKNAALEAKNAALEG

[23] = target: T21, 4H662-AA; assay: two-hybrid library CCmax; conditions: mean of both orientations
T21 chain: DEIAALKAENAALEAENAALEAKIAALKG

B1: 4H3905-AA (peptide)
chain: DKNAALKAKIAALKAEIAALEAEIAALEG
- interaction score [1]: 1.48
- interaction score [2]: -0.568
- interaction score [3]: 0.782
- interaction score [4]: -1.34
- interaction score [5]: -1.37
- interaction score [6]: -1.84
- interaction score [7]: -1.61
- interaction score [8]: -1.53
- interaction score [9]: -1.53
- interaction score [10]: -1.04
- interaction score [11]: 0.128
- interaction score [12]: 0.881

B2: O8-bA (peptide)
chain: DEIAQLEQENAELEQEIAELEWKNAQLKQ
- interaction score [13]: -0.832
- interaction score [14]: 0.317

B3: 4H3605-AA (peptide)
chain: DKNAALKAEIAALEAENAALEAKIAALEG
- interaction score [15]: -1.34
- interaction score [16]: -0.874
- interaction score [17]: -1.67
- interaction score [18]: 1.77
- interaction score [19]: -0.251
- interaction score [20]: -1.31
- interaction score [21]: 0.557
- interaction score [22]: -1.29
- interaction score [23]: -1.77

Reference: article PMC10397247
